Assay results taken from patent publication US20180022780A1 (Bayer, published 2018).
Where a chain is given by its changes, count along the chain named. Each block holds one binder with its values, some of them ahead of it. Bridge positions count the residues as written; N and C are the ends. Square brackets hold non-standard residues; d marks the D form. Ends that are not written are not given here. * marks the point of attachment. Palmitoyl = CCCCCCCCCCCCCCCC(=O)*; NMeI = CC[C@H](C)[C@H](NC)C(=O)O; Orn = NCCC[C@H](N)C(=O)O; Dab = NCC[C@H](N)C(=O)O; Dap = NC[C@H](N)C(=O)O

Key:
[1] = target: human adrenomedullin-receptor (human, UniProt Q16602 23-461); experiment: cell-based or functional assay
Chain of human adrenomedullin-receptor (Q16602 23-461): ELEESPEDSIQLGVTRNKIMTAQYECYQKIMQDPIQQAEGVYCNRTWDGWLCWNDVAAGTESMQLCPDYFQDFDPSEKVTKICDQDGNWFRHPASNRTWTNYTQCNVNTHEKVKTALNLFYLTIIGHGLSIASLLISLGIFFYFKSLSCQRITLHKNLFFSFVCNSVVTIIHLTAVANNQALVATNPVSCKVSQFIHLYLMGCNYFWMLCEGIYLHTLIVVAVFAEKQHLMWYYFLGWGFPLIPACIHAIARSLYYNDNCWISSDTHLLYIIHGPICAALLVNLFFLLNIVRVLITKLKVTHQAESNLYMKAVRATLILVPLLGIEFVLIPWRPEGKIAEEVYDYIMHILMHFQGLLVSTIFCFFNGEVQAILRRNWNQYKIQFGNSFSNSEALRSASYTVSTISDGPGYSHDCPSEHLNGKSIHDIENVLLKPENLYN

[2] = target: CLR fused to EYFP with RAMP2 fused to ECFP; experiment: cell-based or functional assay
Chain of CLR fused to EYFP with RAMP2 fused to ECFP (Q16602 whole entry, chain 1 of 2, the tested form may be a part): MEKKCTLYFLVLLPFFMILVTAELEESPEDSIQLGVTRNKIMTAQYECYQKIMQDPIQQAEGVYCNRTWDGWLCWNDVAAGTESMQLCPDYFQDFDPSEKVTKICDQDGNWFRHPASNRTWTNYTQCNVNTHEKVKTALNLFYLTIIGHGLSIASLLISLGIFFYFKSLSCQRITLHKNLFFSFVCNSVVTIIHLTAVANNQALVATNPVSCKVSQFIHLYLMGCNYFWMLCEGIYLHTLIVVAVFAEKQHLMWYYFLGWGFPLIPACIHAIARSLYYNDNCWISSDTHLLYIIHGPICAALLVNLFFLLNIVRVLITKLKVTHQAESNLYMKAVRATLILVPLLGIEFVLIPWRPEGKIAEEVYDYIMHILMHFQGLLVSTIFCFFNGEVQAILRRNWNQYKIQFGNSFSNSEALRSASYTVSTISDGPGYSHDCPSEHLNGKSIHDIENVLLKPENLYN
Chain of CLR fused to EYFP with RAMP2 fused to ECFP (O60895 whole entry, chain 2 of 2, further chain, the tested form may be a part): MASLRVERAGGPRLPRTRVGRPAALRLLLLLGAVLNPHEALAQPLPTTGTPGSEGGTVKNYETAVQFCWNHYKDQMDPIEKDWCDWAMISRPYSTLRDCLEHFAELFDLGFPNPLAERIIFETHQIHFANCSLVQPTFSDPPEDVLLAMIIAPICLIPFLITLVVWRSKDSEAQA

- EC50 [nM], aequorin luminescence of CHO adrenomedullin-receptor reporter cells [1]: 22 nM
- EC50 [nM], cAMP assay (CRE-luciferase luminescence, HEK293 cells) [2]: 2 nM
Binder: K(Palmitoyl)G[Dap]RFGTETVQKLAHQIYQFTDKDKDNVAPRSKISPQGY-NH2 (lactam 3-8; also: acetate salt) [[K^14(PAM), (Dpr^16, E^21)lac]ADM(14-52)]

- EC50 [nM], aequorin luminescence of CHO adrenomedullin-receptor reporter cells [1]: 34 nM
- EC50 [nM], cAMP assay (CRE-luciferase luminescence, HEK293 cells) [2]: 84 nM
B1: [G^14, (Dab^16, E^21)lac]ADM(14-52) (peptide)
peptide: GG[Dab]RFGTETVQKLAHQIYQFTDKDKDNVAPRSKISPQGY-NH2
modifications: lactam 3-8; N-terminus assumed
SMILES: CC[C@H](C)[C@H](NC(=O)[C@H](CCC(N)=O)NC(=O)[C@H](Cc1c[nH]cn1)NC(=O)[C@H](C)NC(=O)[C@H](CC(C)C)NC(=O)[C@H](CCCCN)NC(=O)[C@H](CCC(N)=O)NC(=O)[C@@H](NC(=O)[C@@H](NC(=O)[C@@H]1CCC(=O)NCC[C@H](NC(=O)CNC(=O)CN)C(=O)N[C@@H](CCCNC(=N)N)C(=O)N[C@@H](Cc2ccccc2)C(=O)NCC(=O)N[C@@H]([C@@H](C)O)C(=O)N1)[C@@H](C)O)C(C)C)C(=O)N[C@@H](Cc1ccc(O)cc1)C(=O)N[C@@H](CCC(N)=O)C(=O)N[C@@H](Cc1ccccc1)C(=O)N[C@H](C(=O)N[C@@H](CC(=O)O)C(=O)N[C@@H](CCCCN)C(=O)N[C@@H](CC(=O)O)C(=O)N[C@@H](CCCCN)C(=O)N[C@@H](CC(=O)O)C(=O)N[C@@H](CC(N)=O)C(=O)N[C@H](C(=O)N[C@@H](C)C(=O)N1CCC[C@H]1C(=O)N[C@@H](CCCNC(=N)N)C(=O)N[C@@H](CO)C(=O)N[C@@H](CCCCN)C(=O)N[C@H](C(=O)N[C@@H](CO)C(=O)N1CCC[C@H]1C(=O)N[C@@H](CCC(N)=O)C(=O)NCC(=O)N[C@@H](Cc1ccc(O)cc1)C(N)=O)[C@@H](C)CC)C(C)C)[C@@H](C)O

- EC50 [nM], aequorin luminescence of CHO adrenomedullin-receptor reporter cells [1]: > 1000 nM
- EC50 [nM], cAMP assay (CRE-luciferase luminescence, HEK293 cells) [2]: 156 nM
B2: [K^14(PAM), (K^16,E^21)lac]ADM(14-52) (peptide)
peptide: K(Palmitoyl)GKRFGTETVQKLAHQIYQFTDKDKDNVAPRSKISPQGY-NH2
modifications: lactam 3-8; N-terminus assumed
SMILES: CCCCCCCCCCCCCCCC(=O)NCCCC[C@H](N)C(=O)NCC(=O)N[C@H]1CCCCNC(=O)CC[C@@H](C(=O)N[C@H](C(=O)N[C@H](C(=O)N[C@@H](CCC(N)=O)C(=O)N[C@@H](CCCCN)C(=O)N[C@@H](CC(C)C)C(=O)N[C@@H](C)C(=O)N[C@@H](Cc2c[nH]cn2)C(=O)N[C@@H](CCC(N)=O)C(=O)N[C@H](C(=O)N[C@@H](Cc2ccc(O)cc2)C(=O)N[C@@H](CCC(N)=O)C(=O)N[C@@H](Cc2ccccc2)C(=O)N[C@H](C(=O)N[C@@H](CC(=O)O)C(=O)N[C@@H](CCCCN)C(=O)N[C@@H](CC(=O)O)C(=O)N[C@@H](CCCCN)C(=O)N[C@@H](CC(=O)O)C(=O)N[C@@H](CC(N)=O)C(=O)N[C@H](C(=O)N[C@@H](C)C(=O)N2CCC[C@H]2C(=O)N[C@@H](CCCNC(=N)N)C(=O)N[C@@H](CO)C(=O)N[C@@H](CCCCN)C(=O)N[C@H](C(=O)N[C@@H](CO)C(=O)N2CCC[C@H]2C(=O)N[C@@H](CCC(N)=O)C(=O)NCC(=O)N[C@@H](Cc2ccc(O)cc2)C(N)=O)[C@@H](C)CC)C(C)C)[C@@H](C)O)[C@@H](C)CC)C(C)C)[C@@H](C)O)NC(=O)[C@H]([C@@H](C)O)NC(=O)CNC(=O)[C@H](Cc2ccccc2)NC(=O)[C@H](CCCNC(=N)N)NC1=O

- EC50 [nM], aequorin luminescence of CHO adrenomedullin-receptor reporter cells [1]: 20.5 nM
- EC50 [nM], cAMP assay (CRE-luciferase luminescence, HEK293 cells) [2]: 31 nM
B3: [G^14, (E^16, K^21)lac]ADM(14-52) (peptide)
peptide: GGERFGTKTVQKLAHQIYQFTDKDKDNVAPRSKISPQGY-NH2
modifications: lactam 3-8; N-terminus assumed
SMILES: CC[C@H](C)[C@H](NC(=O)[C@H](CCC(N)=O)NC(=O)[C@H](Cc1c[nH]cn1)NC(=O)[C@H](C)NC(=O)[C@H](CC(C)C)NC(=O)[C@H](CCCCN)NC(=O)[C@H](CCC(N)=O)NC(=O)[C@@H](NC(=O)[C@@H](NC(=O)[C@@H]1CCCCNC(=O)CC[C@H](NC(=O)CNC(=O)CN)C(=O)N[C@@H](CCCNC(=N)N)C(=O)N[C@@H](Cc2ccccc2)C(=O)NCC(=O)N[C@@H]([C@@H](C)O)C(=O)N1)[C@@H](C)O)C(C)C)C(=O)N[C@@H](Cc1ccc(O)cc1)C(=O)N[C@@H](CCC(N)=O)C(=O)N[C@@H](Cc1ccccc1)C(=O)N[C@H](C(=O)N[C@@H](CC(=O)O)C(=O)N[C@@H](CCCCN)C(=O)N[C@@H](CC(=O)O)C(=O)N[C@@H](CCCCN)C(=O)N[C@@H](CC(=O)O)C(=O)N[C@@H](CC(N)=O)C(=O)N[C@H](C(=O)N[C@@H](C)C(=O)N1CCC[C@H]1C(=O)N[C@@H](CCCNC(=N)N)C(=O)N[C@@H](CO)C(=O)N[C@@H](CCCCN)C(=O)N[C@H](C(=O)N[C@@H](CO)C(=O)N1CCC[C@H]1C(=O)N[C@@H](CCC(N)=O)C(=O)NCC(=O)N[C@@H](Cc1ccc(O)cc1)C(N)=O)[C@@H](C)CC)C(C)C)[C@@H](C)O

- EC50 [nM], aequorin luminescence of CHO adrenomedullin-receptor reporter cells [1]: 32 nM
- EC50 [nM], cAMP assay (CRE-luciferase luminescence, HEK293 cells) [2]: 150 nM
Binder: K(Palmitoyl)GERFGTKTVQKLAHQIYQFTDKDKDNVAPRSK[NMeI]SPQGY-NH2 (lactam 3-8) [[K^14(PAM), (E^16,K^21)lac, N-Me-I^47]ADM(14-52)]

- EC50 [nM], aequorin luminescence of CHO adrenomedullin-receptor reporter cells [1]: 19.6 nM
- EC50 [nM], cAMP assay (CRE-luciferase luminescence, HEK293 cells) [2]: 41 nM
Binder: GGERFGT[Dab]TVQKLAHQIYQFTDKDKDNVAPRSKISPQGY-NH2 (lactam 3-8) [[G^14, (E^16, Dab^21)lac]ADM(14-52)]

- EC50 [nM], aequorin luminescence of CHO adrenomedullin-receptor reporter cells [1]: 0.07 nM
- EC50 [nM], cAMP assay (CRE-luciferase luminescence, HEK293 cells) [2]: 3.3 nM
B4: [G^14, (C^16→U^21)]ADM(14-52) (peptide)
peptide: GGCRFGTXTVQKLAHQIYQFTDKDKDNVAPRSKISPQGY
modifications: positions 16 and 21 (residues 3 and 8 of the letters) together are cystathionine (C^16→U^21, thioether disulfide bond mimetic); X stands for the printed U at 21; C-terminal amide

- EC50 [nM], aequorin luminescence of CHO adrenomedullin-receptor reporter cells [1]: 24 nM
B5: [K^14(PAM), (C^16→U^21)]ADM(14-52) (peptide)
peptide: B4 peptide with G1K
modifications: palmitic acid (PAM) on the side chain of K14 (residue 1 of the letters); positions 16 and 21 (residues 3 and 8) together are cystathionine (C^16→U^21, thioether); X stands for the printed U at 21; C-terminal amide

- EC50 [nM], aequorin luminescence of CHO adrenomedullin-receptor reporter cells [1]: 11 nM
B6: PAM[K^14, (C^16→U^21)]ADM(14-52) (peptide)
peptide: B4 peptide with G1K
modifications: palmitic acid (PAM) on the N-terminus (alpha-amine of K14); positions 16 and 21 (residues 3 and 8 of the letters) together are cystathionine (C^16→U^21, thioether); X stands for the printed U at 21; C-terminal amide

- EC50 [nM], aequorin luminescence of CHO adrenomedullin-receptor reporter cells [1]: > 1000 nM
- EC50 [nM], cAMP assay (CRE-luciferase luminescence, HEK293 cells) [2]: > 1000 nM
B7: [G^14, (U^16→U^21)]ADM(14-52) (peptide)
peptide: B4 peptide with C3X
modifications: positions 16 and 21 (residues 3 and 8 of the letters) together are 2,7-diaminosuberic acid (U^16→U^21, biscarba disulfide bond mimetic); X stands for the printed U; C-terminal amide

- EC50 [nM], aequorin luminescence of CHO adrenomedullin-receptor reporter cells [1]: 1.54 nM
- EC50 [nM], cAMP assay (CRE-luciferase luminescence, HEK293 cells) [2]: 6.8 nM
B8: [G^14, (U^16→C^21)]ADM(14-52) (peptide)
peptide: B4 peptide with C3X, X8C
modifications: positions 16 and 21 (residues 3 and 8 of the letters) together are cystathionine (U^16→C^21, thioether disulfide bond mimetic); X stands for the printed U at 16; C-terminal amide

- EC50 [nM], aequorin luminescence of CHO adrenomedullin-receptor reporter cells [1]: 0.81 nM
- EC50 [nM], cAMP assay (CRE-luciferase luminescence, HEK293 cells) [2]: 29 nM
B9: [K^14(PAM), (E^16, K^21)lac]ADM(14-52) (peptide)
peptide: K(Palmitoyl)GERFGTKTVQKLAHQIYQFTDKDKDNVAPRSKISPQGY-NH2
modifications: lactam 3-8; N-terminus assumed
SMILES: CCCCCCCCCCCCCCCC(=O)NCCCC[C@H](N)C(=O)NCC(=O)N[C@H]1CCC(=O)NCCCC[C@@H](C(=O)N[C@H](C(=O)N[C@H](C(=O)N[C@@H](CCC(N)=O)C(=O)N[C@@H](CCCCN)C(=O)N[C@@H](CC(C)C)C(=O)N[C@@H](C)C(=O)N[C@@H](Cc2c[nH]cn2)C(=O)N[C@@H](CCC(N)=O)C(=O)N[C@H](C(=O)N[C@@H](Cc2ccc(O)cc2)C(=O)N[C@@H](CCC(N)=O)C(=O)N[C@@H](Cc2ccccc2)C(=O)N[C@H](C(=O)N[C@@H](CC(=O)O)C(=O)N[C@@H](CCCCN)C(=O)N[C@@H](CC(=O)O)C(=O)N[C@@H](CCCCN)C(=O)N[C@@H](CC(=O)O)C(=O)N[C@@H](CC(N)=O)C(=O)N[C@H](C(=O)N[C@@H](C)C(=O)N2CCC[C@H]2C(=O)N[C@@H](CCCNC(=N)N)C(=O)N[C@@H](CO)C(=O)N[C@@H](CCCCN)C(=O)N[C@H](C(=O)N[C@@H](CO)C(=O)N2CCC[C@H]2C(=O)N[C@@H](CCC(N)=O)C(=O)NCC(=O)N[C@@H](Cc2ccc(O)cc2)C(N)=O)[C@@H](C)CC)C(C)C)[C@@H](C)O)[C@@H](C)CC)C(C)C)[C@@H](C)O)NC(=O)[C@H]([C@@H](C)O)NC(=O)CNC(=O)[C@H](Cc2ccccc2)NC(=O)[C@H](CCCNC(=N)N)NC1=O

- EC50 [nM], aequorin luminescence of CHO adrenomedullin-receptor reporter cells [1]: > 1000 nM
- EC50 [nM], cAMP assay (CRE-luciferase luminescence, HEK293 cells) [2]: 21 nM
Binder: GGERFGT[Orn]TVQKLAHQIYQFTDKDKDNVAPRSKISPQGY-NH2 (lactam 3-8) [[G^14, (E^16, Orn^21)lac]ADM(14-52)]

- EC50 [nM], aequorin luminescence of CHO adrenomedullin-receptor reporter cells [1]: > 1000 nM
- EC50 [nM], cAMP assay (CRE-luciferase luminescence, HEK293 cells) [2]: > 1000 nM
B10: [G^14, (K^16, E^21)lac]ADM(14-52) (peptide)
peptide: GGKRFGTETVQKLAHQIYQFTDKDKDNVAPRSKISPQGY-NH2
modifications: lactam 3-8; N-terminus assumed
SMILES: CC[C@H](C)[C@H](NC(=O)[C@H](CCC(N)=O)NC(=O)[C@H](Cc1c[nH]cn1)NC(=O)[C@H](C)NC(=O)[C@H](CC(C)C)NC(=O)[C@H](CCCCN)NC(=O)[C@H](CCC(N)=O)NC(=O)[C@@H](NC(=O)[C@@H](NC(=O)[C@@H]1CCC(=O)NCCCC[C@H](NC(=O)CNC(=O)CN)C(=O)N[C@@H](CCCNC(=N)N)C(=O)N[C@@H](Cc2ccccc2)C(=O)NCC(=O)N[C@@H]([C@@H](C)O)C(=O)N1)[C@@H](C)O)C(C)C)C(=O)N[C@@H](Cc1ccc(O)cc1)C(=O)N[C@@H](CCC(N)=O)C(=O)N[C@@H](Cc1ccccc1)C(=O)N[C@H](C(=O)N[C@@H](CC(=O)O)C(=O)N[C@@H](CCCCN)C(=O)N[C@@H](CC(=O)O)C(=O)N[C@@H](CCCCN)C(=O)N[C@@H](CC(=O)O)C(=O)N[C@@H](CC(N)=O)C(=O)N[C@H](C(=O)N[C@@H](C)C(=O)N1CCC[C@H]1C(=O)N[C@@H](CCCNC(=N)N)C(=O)N[C@@H](CO)C(=O)N[C@@H](CCCCN)C(=O)N[C@H](C(=O)N[C@@H](CO)C(=O)N1CCC[C@H]1C(=O)N[C@@H](CCC(N)=O)C(=O)NCC(=O)N[C@@H](Cc1ccc(O)cc1)C(N)=O)[C@@H](C)CC)C(C)C)[C@@H](C)O
